Test results taken from article doi:10.1101/2022.03.30.486377 (bioRxiv, 2022).

What was measured:
NL63 S on 293T cells = NL63 S on 293T cells (Human coronavirus NL63 (HCoV-NL63)., UniProt Q6Q1S2); experiment: flow cytometry on cells
229E S on 293T cells = 229E S on 293T cells (Human coronavirus 229E (HCoV-229E)., UniProt P15423); experiment: flow cytometry on cells
[1] = molecular target: SARS-CoV-2 Wuhan-Hu-1 S on 293T cells (SARS-CoV-2 Wuhan-Hu-1, UniProt P0DTC2); experiment: flow cytometry on cells
[2] = molecular target: HCoV-229E S protein (S1+S2 ECD) (HCoV-229E, strain not named (stand-in: …, UniProt P15423)); experiment: ELISA
[3] = molecular target: SARS-CoV-2 (2019-nCoV) S protein (S1+S2 ECD) (SARS-CoV-2 (2019-nCoV), UniProt P0DTC2); experiment: ELISA
[4] = molecular target: HCoV-HKU1 (isolate N5) S protein (S1+S2 ECD) (Human coronavirus HKU1 (isolate N5) …, UniProt Q0ZME7); experiment: ELISA
[5] = molecular target: HCoV-NL63 S protein (S1+S2 ECD) (HCoV-NL63, strain not named (stand-in: …, UniProt Q6Q1S2)); experiment: ELISA
[6] = molecular target: HCoV-OC43 S protein (S1+S2 ECD) (Human coronavirus OC43 (HCoV-OC43)., UniProt P36334); experiment: ELISA
[7] = molecular target: T1, SARS-CoV-2 fusion peptide K811[…]825 (SARS-CoV-2); experiment: ELISA
T1 chain: KPSKRSFIEDLLFNK

[8] = molecular target: MERS-CoV S protein (S1+S2 ECD) (MERS-CoV; strain  in paper, …, UniProt K0BRG7); experiment: ELISA
[9] = molecular target: T1, SARS-CoV-2 fusion peptide K811[…]825; experiment: crystal structure

Measured: binding result

229E S on 293T cells, sequence (P15423 16-1173): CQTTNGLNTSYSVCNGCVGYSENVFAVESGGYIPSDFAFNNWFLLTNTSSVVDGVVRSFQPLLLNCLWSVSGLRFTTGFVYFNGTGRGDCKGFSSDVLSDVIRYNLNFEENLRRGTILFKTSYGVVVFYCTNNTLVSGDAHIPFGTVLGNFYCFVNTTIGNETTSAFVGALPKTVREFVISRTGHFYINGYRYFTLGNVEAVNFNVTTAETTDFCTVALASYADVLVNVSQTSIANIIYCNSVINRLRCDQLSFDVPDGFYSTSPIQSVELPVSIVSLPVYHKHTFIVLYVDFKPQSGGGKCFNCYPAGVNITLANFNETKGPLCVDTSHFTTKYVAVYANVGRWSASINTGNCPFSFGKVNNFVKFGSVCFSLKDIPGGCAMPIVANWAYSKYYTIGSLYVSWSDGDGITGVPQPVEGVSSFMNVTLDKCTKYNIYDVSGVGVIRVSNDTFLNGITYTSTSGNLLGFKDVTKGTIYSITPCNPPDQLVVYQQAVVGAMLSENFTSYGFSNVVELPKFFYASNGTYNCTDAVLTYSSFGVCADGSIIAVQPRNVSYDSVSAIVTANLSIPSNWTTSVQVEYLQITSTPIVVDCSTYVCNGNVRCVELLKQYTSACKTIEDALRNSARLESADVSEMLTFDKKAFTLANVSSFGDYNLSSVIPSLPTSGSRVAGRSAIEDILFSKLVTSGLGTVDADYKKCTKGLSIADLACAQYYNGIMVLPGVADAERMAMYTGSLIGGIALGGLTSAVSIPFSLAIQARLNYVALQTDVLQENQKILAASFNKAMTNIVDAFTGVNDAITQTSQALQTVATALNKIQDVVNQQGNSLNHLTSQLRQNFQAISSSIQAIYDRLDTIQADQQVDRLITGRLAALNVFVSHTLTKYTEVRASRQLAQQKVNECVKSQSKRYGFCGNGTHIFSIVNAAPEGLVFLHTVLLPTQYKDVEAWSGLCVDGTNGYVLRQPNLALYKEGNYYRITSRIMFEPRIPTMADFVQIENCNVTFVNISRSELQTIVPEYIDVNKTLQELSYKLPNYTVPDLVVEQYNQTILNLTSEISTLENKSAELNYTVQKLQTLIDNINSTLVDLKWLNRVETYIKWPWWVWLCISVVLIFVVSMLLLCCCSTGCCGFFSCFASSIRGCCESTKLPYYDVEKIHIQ
HCoV-OC43 S protein (S1+S2 ECD), sequence (P36334 14-1297): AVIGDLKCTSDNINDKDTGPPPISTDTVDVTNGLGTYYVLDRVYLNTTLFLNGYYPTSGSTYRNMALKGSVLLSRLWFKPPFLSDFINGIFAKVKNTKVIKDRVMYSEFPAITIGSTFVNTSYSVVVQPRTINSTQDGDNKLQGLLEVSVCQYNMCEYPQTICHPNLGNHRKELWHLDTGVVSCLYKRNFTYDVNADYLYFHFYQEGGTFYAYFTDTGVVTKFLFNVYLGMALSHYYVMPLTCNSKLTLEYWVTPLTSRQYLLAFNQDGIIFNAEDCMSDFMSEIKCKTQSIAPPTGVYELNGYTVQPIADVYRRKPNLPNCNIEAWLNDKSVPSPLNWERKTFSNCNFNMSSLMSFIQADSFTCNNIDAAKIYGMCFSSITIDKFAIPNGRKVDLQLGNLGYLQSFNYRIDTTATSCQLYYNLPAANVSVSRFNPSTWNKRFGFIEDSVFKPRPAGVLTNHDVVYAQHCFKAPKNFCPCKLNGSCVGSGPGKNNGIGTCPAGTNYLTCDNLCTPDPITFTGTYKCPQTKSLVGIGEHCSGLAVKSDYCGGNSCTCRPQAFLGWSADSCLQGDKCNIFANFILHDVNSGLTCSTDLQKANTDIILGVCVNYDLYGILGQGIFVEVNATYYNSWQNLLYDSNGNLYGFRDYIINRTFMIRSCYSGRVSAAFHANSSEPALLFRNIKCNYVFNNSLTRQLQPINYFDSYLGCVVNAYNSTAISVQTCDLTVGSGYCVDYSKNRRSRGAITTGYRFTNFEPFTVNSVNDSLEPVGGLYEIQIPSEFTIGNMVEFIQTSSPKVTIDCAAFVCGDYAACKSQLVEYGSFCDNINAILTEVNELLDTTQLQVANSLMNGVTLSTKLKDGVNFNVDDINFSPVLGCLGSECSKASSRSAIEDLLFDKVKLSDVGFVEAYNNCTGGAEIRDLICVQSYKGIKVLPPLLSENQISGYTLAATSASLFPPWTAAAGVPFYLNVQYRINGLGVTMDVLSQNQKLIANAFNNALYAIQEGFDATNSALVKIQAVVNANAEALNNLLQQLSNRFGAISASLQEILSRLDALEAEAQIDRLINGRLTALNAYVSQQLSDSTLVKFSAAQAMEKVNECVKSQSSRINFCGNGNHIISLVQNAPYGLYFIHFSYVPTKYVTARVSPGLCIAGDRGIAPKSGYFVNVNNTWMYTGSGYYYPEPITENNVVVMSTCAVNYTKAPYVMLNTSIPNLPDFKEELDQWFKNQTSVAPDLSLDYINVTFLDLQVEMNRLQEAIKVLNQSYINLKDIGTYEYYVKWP
MERS-CoV S protein (S1+S2 ECD), sequence (K9N5Q8 18-1296): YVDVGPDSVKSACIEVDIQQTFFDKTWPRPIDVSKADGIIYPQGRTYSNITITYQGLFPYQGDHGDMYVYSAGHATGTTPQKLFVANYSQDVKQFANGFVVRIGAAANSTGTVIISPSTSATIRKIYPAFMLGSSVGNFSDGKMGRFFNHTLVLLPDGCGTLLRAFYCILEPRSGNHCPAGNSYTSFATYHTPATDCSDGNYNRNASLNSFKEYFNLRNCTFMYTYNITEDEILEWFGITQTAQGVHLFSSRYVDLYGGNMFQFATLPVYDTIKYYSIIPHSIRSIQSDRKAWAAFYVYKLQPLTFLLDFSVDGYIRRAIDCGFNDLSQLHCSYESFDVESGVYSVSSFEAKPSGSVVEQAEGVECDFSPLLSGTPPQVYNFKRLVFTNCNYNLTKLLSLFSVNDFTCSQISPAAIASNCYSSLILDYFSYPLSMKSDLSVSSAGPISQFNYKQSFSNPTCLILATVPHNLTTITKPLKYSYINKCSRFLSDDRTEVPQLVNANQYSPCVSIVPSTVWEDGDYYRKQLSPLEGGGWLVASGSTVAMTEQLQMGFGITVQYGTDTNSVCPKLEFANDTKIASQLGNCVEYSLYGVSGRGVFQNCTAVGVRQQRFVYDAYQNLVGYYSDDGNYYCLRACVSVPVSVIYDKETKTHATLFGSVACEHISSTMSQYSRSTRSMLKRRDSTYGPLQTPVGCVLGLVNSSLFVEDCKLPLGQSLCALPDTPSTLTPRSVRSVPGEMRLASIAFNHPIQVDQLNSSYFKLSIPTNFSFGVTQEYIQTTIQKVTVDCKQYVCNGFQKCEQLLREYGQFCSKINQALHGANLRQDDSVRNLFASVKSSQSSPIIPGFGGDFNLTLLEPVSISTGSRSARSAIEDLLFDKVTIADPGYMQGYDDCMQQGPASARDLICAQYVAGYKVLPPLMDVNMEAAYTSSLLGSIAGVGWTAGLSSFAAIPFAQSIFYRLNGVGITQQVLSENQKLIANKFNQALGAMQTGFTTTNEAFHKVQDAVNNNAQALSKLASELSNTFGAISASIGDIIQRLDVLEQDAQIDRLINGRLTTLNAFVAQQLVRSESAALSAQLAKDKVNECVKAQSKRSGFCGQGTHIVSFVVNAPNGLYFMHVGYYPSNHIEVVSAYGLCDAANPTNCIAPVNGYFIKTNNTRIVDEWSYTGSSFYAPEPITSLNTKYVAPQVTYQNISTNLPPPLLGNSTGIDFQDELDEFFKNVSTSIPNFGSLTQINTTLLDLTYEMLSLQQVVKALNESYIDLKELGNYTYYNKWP
HCoV-229E S protein (S1+S2 ECD) (HCoV-229E, strain not named, sequence (P15423 whole entry, looked up, the tested form may be a part): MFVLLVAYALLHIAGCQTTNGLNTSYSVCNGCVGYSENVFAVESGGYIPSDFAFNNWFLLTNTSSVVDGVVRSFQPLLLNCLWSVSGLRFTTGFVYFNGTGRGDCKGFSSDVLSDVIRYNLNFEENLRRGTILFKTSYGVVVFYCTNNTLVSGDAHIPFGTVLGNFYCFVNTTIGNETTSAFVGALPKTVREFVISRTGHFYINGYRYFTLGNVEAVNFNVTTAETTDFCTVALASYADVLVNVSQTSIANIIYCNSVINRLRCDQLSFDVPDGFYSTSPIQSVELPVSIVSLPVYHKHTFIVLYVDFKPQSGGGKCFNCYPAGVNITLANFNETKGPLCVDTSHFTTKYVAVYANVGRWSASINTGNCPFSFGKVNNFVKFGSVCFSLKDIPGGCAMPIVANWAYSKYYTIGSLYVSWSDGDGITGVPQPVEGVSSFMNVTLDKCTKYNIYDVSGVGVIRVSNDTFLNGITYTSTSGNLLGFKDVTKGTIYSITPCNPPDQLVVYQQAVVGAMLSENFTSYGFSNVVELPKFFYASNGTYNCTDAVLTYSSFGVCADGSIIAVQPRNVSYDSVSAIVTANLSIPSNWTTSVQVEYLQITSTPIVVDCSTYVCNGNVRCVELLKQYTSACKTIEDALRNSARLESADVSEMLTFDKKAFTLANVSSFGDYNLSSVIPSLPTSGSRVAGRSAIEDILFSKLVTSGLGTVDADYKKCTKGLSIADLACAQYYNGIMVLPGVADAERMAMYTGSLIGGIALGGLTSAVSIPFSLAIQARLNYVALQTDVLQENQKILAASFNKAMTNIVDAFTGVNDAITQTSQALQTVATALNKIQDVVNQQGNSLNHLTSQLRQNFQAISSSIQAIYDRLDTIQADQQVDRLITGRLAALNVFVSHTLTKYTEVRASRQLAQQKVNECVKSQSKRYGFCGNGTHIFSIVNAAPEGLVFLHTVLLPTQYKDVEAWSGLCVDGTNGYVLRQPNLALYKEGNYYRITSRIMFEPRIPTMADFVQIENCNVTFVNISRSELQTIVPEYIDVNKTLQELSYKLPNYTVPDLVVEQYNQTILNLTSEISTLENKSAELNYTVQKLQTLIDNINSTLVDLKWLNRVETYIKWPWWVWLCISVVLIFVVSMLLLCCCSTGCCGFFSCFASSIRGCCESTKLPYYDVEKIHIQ

B1: C13B8 mAb (antibody, V domains shown)
VH: QVQLQESGPGLVQPSQTLTLTCTVSGDSISNEDYHWTWIRQHPGKGLEWMGYLQYSGNTNYNPSLKSRMTISVDTSKNQFSLRLNSVTAADTAVYFCATSIVLTGMSNKIQPFDYWGQGTLVTVSS
VL: SYELTQPPSVSVSPGQMARITCSGEALPKKYAYWYQQKGGQFPVLVIYKDTERPSGIPERFSGSSSGTIVTLTISGVQPEDEADYYCLSADTSGTWVFGGGTKLTVL
not listed: [9]
binds: all other assays above

B2: C13B8 Fab (Fab, V domains shown)
VH: QVQLQESGPGLVQPSQTLTLTCTVSGDSISNEDYHWTWIRQHPGKGLEWMGYLQYSGNTNYNPSLKSRMTISVDTSKNQFSLRLNSVTAADTAVYFCATSIVLTGMSNKIQPFDYWGQGTLVTVSS
VL: SYELTQPPSVSVSPGQMARITCSGEALPKKYAYWYQQKGGQFPVLVIYKDTERPSGIPERFSGSSSGTIVTLTISGVQPEDEADYYCLSADTSGTWVFGGGTKLTVL
binds: [9]

B3: VN01H1 mAb (antibody, V domains shown)
VH: EVQLVESGGGLVLPGGSLRLSCSASGFTFSDFSMHWVRQSPGKGLEYVSAITSSGSSTYYPDSVKGRFTISRDNSKNTLYLQMGSLRVEDTAVYWCVKNSDVFRFPHLYFDVWGRGTLVTVSS
VL: not shown
not listed: [9]
binds: all other assays above

B4: VN01H1 Fab (Fab, V domains shown)
VH: EVQLVESGGGLVLPGGSLRLSCSASGFTFSDFSMHWVRQSPGKGLEYVSAITSSGSSTYYPDSVKGRFTISRDNSKNTLYLQMGSLRVEDTAVYWCVKNSDVFRFPHLYFDVWGRGTLVTVSS
VL: not shown
binds: [9]

B5: VP12E7 mAb (antibody, V domains shown)
VH: QVQLVQSGGGVVQPGESLRLSCSGSGFTFNNYIMHWVRQAPGQGLDYVSGIGSDGRNTNYGDSVKGRFTISRDNSKDTLYLQMTSLRAEDTAFYYCVKGLDVLRFLDLSTPSGERLDAFDIWGQGTMVTVSS
VL: DIVMTQSPSFLSASVGDRVTITCRASQGISNYLAWYQQKPGKAPHLLIYAASTLQSGVPSRFSGSGSGTEFTLTISSLQPEDFATYYCQQLNSYPLFTFGPGTKVDIE
not listed: [9]
binds: all other assays above

B6: VP12E7 Fab (Fab, V domains shown)
VH: QVQLVQSGGGVVQPGESLRLSCSGSGFTFNNYIMHWVRQAPGQGLDYVSGIGSDGRNTNYGDSVKGRFTISRDNSKDTLYLQMTSLRAEDTAFYYCVKGLDVLRFLDLSTPSGERLDAFDIWGQGTMVTVSS
VL: DIVMTQSPSFLSASVGDRVTITCRASQGISNYLAWYQQKPGKAPHLLIYAASTLQSGVPSRFSGSGSGTEFTLTISSLQPEDFATYYCQQLNSYPLFTFGPGTKVDIE
binds: [9]

B7: C13C9 mAb (antibody, V domains shown)
VH: EVQLVQSGPEVKKPGTSARVSCKASGFTSKNTALQWVRQARGQPLEWMGWIDISNYITNYAQKFRGRLTITWDLSASMAYMELSSLRSEDTAVYYCAAVGKDDDVLTGGNKYFDHWGQGTLVTVSS
VL: SYELTQPPSVSVSPGQTARITCSGDALPKKYAYWYQQKSGQAPVLVIHEDDKRPSGIPGRFSASSSGTTATLTISGAQVEDEADYYCYSTDTNDNHAFGSGTKLTVL
not listed: [9]
binds: all other assays above

B8: C13C9 Fab (Fab, V domains shown)
VH: EVQLVQSGPEVKKPGTSARVSCKASGFTSKNTALQWVRQARGQPLEWMGWIDISNYITNYAQKFRGRLTITWDLSASMAYMELSSLRSEDTAVYYCAAVGKDDDVLTGGNKYFDHWGQGTLVTVSS
VL: SYELTQPPSVSVSPGQTARITCSGDALPKKYAYWYQQKSGQAPVLVIHEDDKRPSGIPGRFSASSSGTTATLTISGAQVEDEADYYCYSTDTNDNHAFGSGTKLTVL
binds: [9]

B9: C77G12 mAb (antibody, V domains shown)
VH: EVQLVESGGGVVQPGRSLRISCAVSGFTFGSYAMHWVRQAPGKGLEWVGVMSSDGHNEYYADSVKGRFTISRDNSRNKLYLEMNNLRVDDTAVFYCARGSDYVDDSPPLHYWGQGTLVTVSS
VL: DIQLTQSPSSLSASIGDRVTITCRASQDIANKLAWFQQAPGKAPKSLIYAASRLQSGVPSQFSGSGSGTDFTLTIESLQAGDFATYFCQQYDSFPFTFGPGTKVDVK
not listed: [9]
binds: all other assays above

B10: C77G12 Fab (Fab, V domains shown)
VH: EVQLVESGGGVVQPGRSLRISCAVSGFTFGSYAMHWVRQAPGKGLEWVGVMSSDGHNEYYADSVKGRFTISRDNSRNKLYLEMNNLRVDDTAVFYCARGSDYVDDSPPLHYWGQGTLVTVSS
VL: DIQLTQSPSSLSASIGDRVTITCRASQDIANKLAWFQQAPGKAPKSLIYAASRLQSGVPSQFSGSGSGTDFTLTIESLQAGDFATYFCQQYDSFPFTFGPGTKVDVK
binds: [9]
